Assay results as given in patent US20060193771A1 (US Dept. of Health and Human Services, published 2006).
Positions count from the first letter of the chain named.

T1: CD30-Fc (human)
T1 construct: also called extracellular domain of CD30 fused with human IgG Fc
T1 chain: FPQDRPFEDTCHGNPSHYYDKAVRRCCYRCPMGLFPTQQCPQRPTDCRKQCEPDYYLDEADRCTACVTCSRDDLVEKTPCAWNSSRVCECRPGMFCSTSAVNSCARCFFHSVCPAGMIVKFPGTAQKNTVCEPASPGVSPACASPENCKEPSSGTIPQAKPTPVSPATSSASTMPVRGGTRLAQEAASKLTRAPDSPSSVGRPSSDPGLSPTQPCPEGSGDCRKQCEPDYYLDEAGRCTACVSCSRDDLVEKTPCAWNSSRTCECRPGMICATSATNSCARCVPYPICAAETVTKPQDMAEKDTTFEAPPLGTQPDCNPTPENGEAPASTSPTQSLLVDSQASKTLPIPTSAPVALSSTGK

T2: human CD30, native, expressed on cells (human)
T2 construct: also called native CD30; CD30 on L540, L428, A431/CD30, Karpas299, SUDHL-1 and other CD30-positive cells
T2 chain: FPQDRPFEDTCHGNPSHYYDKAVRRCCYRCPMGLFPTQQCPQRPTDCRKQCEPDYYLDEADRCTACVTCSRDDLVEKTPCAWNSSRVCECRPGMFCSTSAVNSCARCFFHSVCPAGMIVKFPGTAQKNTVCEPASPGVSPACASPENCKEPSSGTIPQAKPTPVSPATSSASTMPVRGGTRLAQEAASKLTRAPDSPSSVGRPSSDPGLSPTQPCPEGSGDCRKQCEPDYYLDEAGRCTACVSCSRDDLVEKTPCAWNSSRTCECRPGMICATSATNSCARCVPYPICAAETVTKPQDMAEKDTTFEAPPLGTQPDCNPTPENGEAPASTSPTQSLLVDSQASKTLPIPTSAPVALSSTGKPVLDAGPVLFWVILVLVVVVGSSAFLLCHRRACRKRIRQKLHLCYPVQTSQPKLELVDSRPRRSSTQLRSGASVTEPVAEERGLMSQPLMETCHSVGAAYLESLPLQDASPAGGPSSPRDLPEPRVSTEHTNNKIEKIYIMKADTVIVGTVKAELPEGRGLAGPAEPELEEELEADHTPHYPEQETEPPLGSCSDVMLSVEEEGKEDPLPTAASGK

T3: recombinant soluble CD30 (sCD30) produced in E. coli (human)
T3 construct: also called soluble CD30 made in E. coli; extracellular domain of CD30 with His-tag
T3 chain: T1 chain

B1: T13 MAb (antibody, V domains shown)
VH: QVQLQQSGAELAKPGASVKMSCKASGYTFTTYWMHWVKQRPGQGLEWIGYINPSTGYTDYNEKFKDKATLTADKSSSTAYMQLSSLTSEDSAVYYCVRRGSYDGNPFAYWGQGTLVSVSA
VL: DIVMTQSHKFMSTSVGDRVTITCKASQDVSTAVAWYQQKPGHSPKLLIYWASTRHTGVPDRFTGSGSGTDYTLTISSVQVEDLALYYCQQHYSTPFTFGSGTKLEIKR
B2: T25 MAb (antibody, V domains shown)
VH: QVTLKESGPGILQPSQTLSLTCSFSGFSLNTSGVGVGWIRQPSGKGLEWLAHIWWDDDERYNPVLKSRLTISKDTSSNQVFLKIANVDTADSATYYCVRSMVAWFPYWGRGTLVTVSA
VL: DIVMSQSPSSLAVSVGEKFTVNCKSSQSLLYSSNQKNFLAWYQQKPGQSPKLLIYWASTRESGVPDRFIGSGSGTDFTLTISSVKAEDLAVYYCQQHYRYPWTFGGGTKLEIKR
B3: T6 MAb (antibody, V domains shown)
VH: QVQLKESGPGLVTPSQSLSITCTVSGFSLSKYSIHWVRQPPGRGLEWLGMIWGVENTDYNSALKSRLSISKDNSKSQVFLKMNSLQSDDTAMYYCARKDLGLYGMNYWGQGISVTVSA
VL: DIVMTQSQKFMSTSVGDRVSVTCKASQNVGTNVAWYQQKPGQSPKALFYSASYRYSGVPDRFIGSGSGTVFTLTISNVQSEDLAEYFCQQYNTYPLTFGSGTKLEIER
B4: T24 MAb (antibody, V domains shown)
VH: QVQLQQPGAELVRPGASVKLSCKASGYSFTSYWIDWVKQRPGQGLEWIGNIYPSNAYTNYNQKFKDKATLTVDKSSSTAYMQLSSPTSEDSAVYYCTSVLDYFYAMDYWGQGTSVTVSS
VL: DIQMTQTTSSLSASLGDRVTISCRASQDISNYLNWYQQKPDGTVKLLIYYTSRLHSGVPSRFSGSGSGTDYSLTISNLEQEDIATYFCQQVNTLPRTFGGGTKLEIKR
B5: T201 MAb (antibody, V domains shown)
VH: QVQLKESGPGLVAPSQSLSITCTVSGFSLIDYGVSWVRQPPGKGLEWLGMIWGDGNTDYNSGLKSRLSISKDNSKSQVFLKVNSLQTDDTARYYCARPSTGTLFAYWGQGTLVTVSA
VL: EIVLTQSPTTMAASPGERITFTCSASSGISSIYLHWYQQKPGFSPKLLIYRTSNLASGVPPRFSGSGSGTSYSLTIGTMEAEDVATYYCQQGSSIPLTFGAGTKLELKR
B6: T427 MAb (antibody, V domains shown)
VH: QVQLQQPGTELVRPGASVKLSCKASGFSFTSYWMNWVKQRPGQGLEWIGMIHPSDSETRLNQKFKDRATLTVDKSSSTAYMQLSSPTSEDSAVYYCASEMDYYFAMDYWGQGTSVTVSS
VL: DIVLTQSPTSLAVSLGQRATISCRASESVDSYGNSFMHWFQQKPGQPPKLLIYRASNLESGIPARFSGSGSWTDFTLTINPVEADDVATYYCQQSNEDPRTFGGGTKLEIKR
B7: T420 MAb (antibody, V domains shown)
VH: QVQLQQSGAELAKPGASVKMSCKASGYTFTSYWMHWVKQRPGQDLEWIGYINPSTDYTDYNQKFKDKATLTADKSSSTAYMQLSSLTSEDSAVYYCATRHYGSSYGFAYWGQGTLVTVSA
VL: B1 VL with T20S, H42Q, T72S, V80A, L85V, S93R
B8: T405 MAb (antibody, V domains shown)
VH: QVQLQQIGAELVRPGASVKLSCKASGYTFNNYWINWVKQRPGQGLEWIGNIYPSDSRSNYNQKFKDKATLTVDKPSSTAYMQLSSPTSEDSAVYYCTLGSYWGQGTLVTVSA
VL: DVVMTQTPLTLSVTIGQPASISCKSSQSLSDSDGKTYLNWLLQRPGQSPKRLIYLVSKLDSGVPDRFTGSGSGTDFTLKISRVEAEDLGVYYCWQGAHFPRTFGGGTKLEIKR
B9: T408 MAb (antibody, V domains shown)
VH: B8 VH with I7P, N30T, N31S, R57Y, P75S
VL: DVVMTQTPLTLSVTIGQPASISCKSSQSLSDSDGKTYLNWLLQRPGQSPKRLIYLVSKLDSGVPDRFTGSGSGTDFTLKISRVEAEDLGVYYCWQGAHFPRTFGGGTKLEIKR
B10: T105 MAb (antibody, V domains shown)
VH: QVTLKESGPGILQPSQTLSLTCSFSGFSLSTSGMGVSWIRQPSGKDLEWLAHIYWDDDKRYNPSLKSRLTISKDTSSNQVFLKITSVDTADTATYYCARRADGLYFYLDVWGAGTTVTVSS
VL: B3 VL with G30N, K45E, F48I, I63T, V70D, T93S, E107K

Molecular target: T1, CD30-Fc
Test: indirect ELISA, CD30-Fc coated
Procedure: (§1) ELISA. The binding of anti-CD30 MAbs to sCD30 and CD30-Fc was assayed by indirect ELISAs. Microtiter plates (Costar, Cambridge, Mass.) were coated with 20 ng/well of sCD30 or CD30-Fc in PBS overnight at 4° C. After blocking with 0.5% of BSA in PBS, hybridoma supernatants or purified MAbs were added to the coated wells and incubated for 2 h at room temperature. The bound MAbs were detected with alkaline phosphatase (ALP)-labeled anti-mouse IgG (BioSource, Camarillo, Calif.) and p-nitrophenyl phosphate as the substrate.

Binder | titer in ELISA
B1 | 91.2 mL/µg
B2 | 50 mL/µg
B3 | 40 mL/µg
B4 | 179 mL/µg

Molecular target: T2, human CD30, native, expressed on cells
Test: competitive FACS on L540 cells, unlabeled MAb 2.5 µg/ml; competitor: biotin-T14
Procedure: (§2) These MAbs were further characterized for their topographical epitopes by a competitive binding assay using FACS analysis. […] Some of the MAbs were biotinylated as the indicators and incubated with L540 cells in the presence of various concentrations of unlabeled MAbs as the competitors.

Binder | inhibition of the binding of biotin-MAb (%)
B1 | 108%
B2 | -1.3%
B3 | 108%
B4 | 16.1%

Molecular target: T2, human CD30, native, expressed on cells
Test: competitive FACS on L540 cells, unlabeled MAb 2.5 µg/ml; competitor: biotin-T24
Procedure: as §2

Binder | inhibition of the binding of biotin-MAb (%)
B1 | 40.1%
B2 | 0%
B3 | 3.9%
B4 | 82.8%

Molecular target: T1, CD30-Fc
Test: affinity of the MAb; ELISA using CD30-Fc
Procedure: (§3) In one type of ELISA (CD30-Fc ELISA), microtiter plates were coated with 25 ng/well of CD30-Fc. Culture supernatants of hybridoma were added to the coated wells, and bound MAbs were detected with HRP-labeled rat anti-mouse kappa chain monoclonal antibody. A different format of ELISA. Ig-trap ELISA, was also carried out. MAbs were captured by anti-mouse IgG coated on the plates, and then reacted with various concentrations of CD30-Fc in solution. The bound CD30-Fc was detected with HRP-labeled goat anti-human Fc antibody.
(§4) Determination of affinity: Each MAb was titered in the CD30-Fc ELISA described above and an appropriate dilution for each MAb was selected from the liner range of the titration curves. […] The free MAb concentration in each equilibrium reaction was measured by the same ELISA using standard curves. No re-equilibrium occurred during the ELISA because of the small amounts of coated CD30-Fc and the short time of incubation. The CD30-Fc concentration giving half free MAb was the Kd.

Binder | Kd
B5 | 8.3 nM
B6 | 0.9 nM
B1 | 3.1 nM
B7 | 1.9 nM
B2 | 6.4 nM
B8 | 5.7 nM
B9 | 6.4 nM
B3 | 13 nM
B10 | 4.2 nM
B4 | 2.2 nM

Molecular target: T2, human CD30, native, expressed on cells
Test: competitive FACS on L540 cells, unlabeled MAb 2.5 µg/ml; competitor: biotin-HRS-4
Procedure: as §2

Binder | inhibition of the binding of biotin-MAb (%)
B1 | 82.6%
B2 | 0%
B3 | 97.9%
B4 | 52.2%

Molecular target: T3, recombinant soluble CD30 (sCD30) …
Test: indirect ELISA, sCD30 coated
Procedure: as §1

Binder | titer in ELISA
B1 | 87.7 mL/µg
B2 | 135 mL/µg
B3 | 74.1 mL/µg
B4 | 102 mL/µg

Molecular target: T2, human CD30, native, expressed on cells
Test: FACS, L540 cells, MAb 5 µg/ml, control HeFi-I
Procedure: (§5) FACS Analysis. FACS analysis was performed to measure the binding of the MAbs or immunotoxins to native CD30 expressed on various cell lines. […] After incubation for 1 h at 4° C., the cells were washed twice with the same buffer and incubated with FITC-labeled goat mouse IgG (BioSource). After washing, the cells were suspended in 1 ml of the buffer, and the fluorescence associated with the live cells was measured using a FACS Calibur flow cytometer (Beckman Coulter, Fullerton, Calif.).
(§6) The binding activity of the MAbs to native CD30 on cells was measured.

Binder | relative reactivity in FACS (% of control)
B1 | 111 % of control
B2 | 27.8 % of control
B3 | 111 % of control
B4 | 117 % of control

Molecular target: T2, human CD30, native, expressed on cells
Test: competitive FACS on L540 cells, unlabeled MAb 2.5 µg/ml; competitor: biotin-HeFi-I
Procedure: as §2

Binder | inhibition of the binding of biotin-MAb (%)
B1 | 0%
B2 | 0%
B3 | 0%
B4 | 79.8%

Molecular target: T2, human CD30, native, expressed on cells
Test: competitive FACS on L540 cells, unlabeled MAb 2.5 µg/ml; competitor: biotin-T25
Procedure: as §2

Binder | inhibition of the binding of biotin-MAb (%)
B1 | 26.7%
B2 | 79.8%
B3 | 25%
B4 | 97.8%

Molecular target: T1, CD30-Fc
Test: ELISA using CD30-Fc (equilibrium in solution)
Procedure: as §3, §4

Binder | Kd
B1 | 3.1 nM
B7 | 1.9 nM
B2 | 6.4 nM
B3 | 13 nM
B10 | 4.2 nM
B4 | 2.2 nM

Molecular target: T2, human CD30, native, expressed on cells
Test: FACS, L428 cells, MAb 5 µg/ml, control HeFi-I
Procedure: as §5, §6

Binder | relative reactivity in FACS (% of control)
B1 | 180 % of control
B2 | 80 % of control
B3 | 140 % of control
B4 | 160 % of control

Molecular target: T2, human CD30, native, expressed on cells
Test: competitive FACS on L540 cells, unlabeled MAb 2.5 µg/ml; competitor: biotin-T6
Procedure: as §5, §2

Binder | inhibition of the binding of biotin-MAb (%)
B1 | 87.4%
B2 | 1.5%
B3 | 100%
B4 | 1.5%
